From patent publication US20100093623A1, “COMPOSITIONS AND METHODS FOR […]-LIKE RECEPTOR ACTIVITY AND USES THEREOF” (Burnham Institute for Medical Research, priority 2008, published 2010)

Target: T1, NLRP1 (Homo sapiens, UniProt Q9C000)
T1 sequence (Q9C000 1-1473): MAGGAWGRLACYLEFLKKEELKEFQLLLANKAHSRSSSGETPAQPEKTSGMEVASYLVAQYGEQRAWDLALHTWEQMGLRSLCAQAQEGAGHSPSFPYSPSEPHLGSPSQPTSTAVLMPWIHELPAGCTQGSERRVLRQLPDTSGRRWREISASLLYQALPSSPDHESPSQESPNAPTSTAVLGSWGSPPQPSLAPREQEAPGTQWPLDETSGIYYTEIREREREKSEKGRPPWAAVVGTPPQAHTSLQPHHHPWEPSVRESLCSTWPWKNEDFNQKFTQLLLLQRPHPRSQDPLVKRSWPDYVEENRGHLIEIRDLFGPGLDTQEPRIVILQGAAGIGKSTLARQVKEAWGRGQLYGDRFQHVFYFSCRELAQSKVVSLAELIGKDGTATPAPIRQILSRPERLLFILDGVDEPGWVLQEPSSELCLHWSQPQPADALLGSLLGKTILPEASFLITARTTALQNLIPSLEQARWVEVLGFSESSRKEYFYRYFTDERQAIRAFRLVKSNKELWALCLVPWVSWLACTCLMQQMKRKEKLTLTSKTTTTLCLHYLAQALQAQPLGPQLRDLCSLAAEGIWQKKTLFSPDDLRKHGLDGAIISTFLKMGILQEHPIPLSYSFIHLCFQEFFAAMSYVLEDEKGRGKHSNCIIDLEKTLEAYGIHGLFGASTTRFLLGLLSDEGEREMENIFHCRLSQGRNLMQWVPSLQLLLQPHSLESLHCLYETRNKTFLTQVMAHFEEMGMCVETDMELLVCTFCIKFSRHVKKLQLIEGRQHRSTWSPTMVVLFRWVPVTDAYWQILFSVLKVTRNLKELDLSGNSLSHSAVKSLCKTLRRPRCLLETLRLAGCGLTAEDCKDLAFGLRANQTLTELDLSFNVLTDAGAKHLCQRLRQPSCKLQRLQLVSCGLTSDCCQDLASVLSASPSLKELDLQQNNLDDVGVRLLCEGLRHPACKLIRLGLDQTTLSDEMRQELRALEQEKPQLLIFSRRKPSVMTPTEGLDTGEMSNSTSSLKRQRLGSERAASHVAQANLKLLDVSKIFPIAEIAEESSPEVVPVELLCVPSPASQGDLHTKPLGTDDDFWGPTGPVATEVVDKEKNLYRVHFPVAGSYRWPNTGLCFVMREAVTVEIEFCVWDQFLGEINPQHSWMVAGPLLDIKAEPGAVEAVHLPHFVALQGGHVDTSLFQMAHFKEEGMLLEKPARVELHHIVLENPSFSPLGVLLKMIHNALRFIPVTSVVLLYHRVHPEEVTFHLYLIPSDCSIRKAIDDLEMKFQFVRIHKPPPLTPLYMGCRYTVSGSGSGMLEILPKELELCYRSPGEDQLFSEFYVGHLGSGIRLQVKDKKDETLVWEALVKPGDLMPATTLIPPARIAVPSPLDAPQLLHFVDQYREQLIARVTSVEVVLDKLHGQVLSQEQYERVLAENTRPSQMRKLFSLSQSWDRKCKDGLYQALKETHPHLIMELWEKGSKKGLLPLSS
Assay: FITC-ATP binding to NLRP1 by fluorescence polarization assay (FPA)
Settings: protein 1 μM at excess; NLRP1 0.125 μM; FITC-ATP 10 nM; MDP-LD 1 μM

B1: Bid: control protein (Bcl-2 family) (protein, UniProt P55957 1-195, looked up)
BH3-interacting domain death …: MDCEVNNGSSLRDECITNLLVFGFLQSCSDNSFRRELDALGHELPVLAPQWEGYDELQTDGNRSSHSRLGRIEADSESQEDIIRNIARHLAQVGDSMDRSIPPGLVNGLALQLRNTSRSEEDRNRDLATALEQLLQAYPRDMEKEKTMLVLALLLAKKVASHTPSLLRDVFHTTVNFINQNLRTYVRSLARNGMD
reduction of FITC-ATP binding to NLRP1: negligible effects
